T1: MBP-HAT1 (Arabidopsis thaliana (Col-0), UniProt P46600 1-282)
T1 sequence: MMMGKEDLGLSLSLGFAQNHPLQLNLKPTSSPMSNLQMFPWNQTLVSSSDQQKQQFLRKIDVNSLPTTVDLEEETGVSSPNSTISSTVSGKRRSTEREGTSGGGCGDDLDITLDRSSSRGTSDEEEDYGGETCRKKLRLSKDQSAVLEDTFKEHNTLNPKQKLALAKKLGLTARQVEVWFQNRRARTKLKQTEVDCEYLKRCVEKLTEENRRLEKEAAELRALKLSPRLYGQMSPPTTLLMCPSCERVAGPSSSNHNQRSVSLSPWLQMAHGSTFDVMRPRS

T2: GST-SnRK2.3 (Arabidopsis thaliana, UniProt Q39193 1-361)
T2 construct: SnRK2.3 of Arabidopsis; coding region inserted into pGEX-6P-1; also called GST-SnRK2s; SnRK2.3 fused with GST; source: recombinant (pGEX-6P-1 vector), purified with glutathione beads (Sigma)
T2 sequence (looked up): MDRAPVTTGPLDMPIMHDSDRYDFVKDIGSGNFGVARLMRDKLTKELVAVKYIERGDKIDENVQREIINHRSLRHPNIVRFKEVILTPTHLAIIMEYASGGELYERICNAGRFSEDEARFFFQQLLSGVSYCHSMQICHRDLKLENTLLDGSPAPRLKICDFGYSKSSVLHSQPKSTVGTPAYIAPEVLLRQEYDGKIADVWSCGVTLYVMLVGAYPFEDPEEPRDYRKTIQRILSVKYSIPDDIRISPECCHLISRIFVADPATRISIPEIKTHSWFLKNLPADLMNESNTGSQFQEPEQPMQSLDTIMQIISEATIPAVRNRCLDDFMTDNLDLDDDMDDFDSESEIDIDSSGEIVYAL

T3: GST-SnRK2.6 (Arabidopsis thaliana, UniProt Q940H6 1-362)
T3 construct: SnRK2.6 of Arabidopsis; coding region inserted into pGEX-6P-1; also called GST-SnRK2s; source: recombinant (pGEX-6P-1 vector); purification told only for GST-SnRK2.3
T3 sequence (looked up): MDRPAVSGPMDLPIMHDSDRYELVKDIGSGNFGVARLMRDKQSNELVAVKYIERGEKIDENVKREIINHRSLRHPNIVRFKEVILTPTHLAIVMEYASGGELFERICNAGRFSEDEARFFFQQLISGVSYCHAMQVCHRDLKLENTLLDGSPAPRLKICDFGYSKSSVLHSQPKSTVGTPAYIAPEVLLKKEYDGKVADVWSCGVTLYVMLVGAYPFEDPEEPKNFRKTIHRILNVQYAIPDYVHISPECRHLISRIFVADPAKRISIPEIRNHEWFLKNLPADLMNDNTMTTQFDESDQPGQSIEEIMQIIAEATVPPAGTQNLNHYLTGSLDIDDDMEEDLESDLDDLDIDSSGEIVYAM

T4: GST-SnRK2.2 (Arabidopsis thaliana, UniProt Q39192 1-362)
T4 construct: SnRK2.2 of Arabidopsis; coding region inserted into pGEX-6P-1; also called GST-SnRK2s; source: recombinant (pGEX-6P-1 vector); purification told only for GST-SnRK2.3
T4 sequence (looked up): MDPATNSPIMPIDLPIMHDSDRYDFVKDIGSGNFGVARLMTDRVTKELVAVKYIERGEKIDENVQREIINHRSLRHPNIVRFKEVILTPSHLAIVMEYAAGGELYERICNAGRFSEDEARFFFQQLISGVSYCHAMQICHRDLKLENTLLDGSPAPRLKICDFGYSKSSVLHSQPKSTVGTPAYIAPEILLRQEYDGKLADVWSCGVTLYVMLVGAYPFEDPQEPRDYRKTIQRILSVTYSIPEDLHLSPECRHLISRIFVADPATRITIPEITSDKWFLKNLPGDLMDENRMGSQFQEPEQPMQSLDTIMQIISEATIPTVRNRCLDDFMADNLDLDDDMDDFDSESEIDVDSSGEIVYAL

B1: NCED3 N1 WT probe (dsDNA)
DNA 1: AAAAATTCCAATTATTGTGTTACTCTATTCTTCTAAA
DNA 2: TTTAGAAGAATAGAGTAACACAATAATTGGAATTTTT
B2: MBP-HAT1 (natural protein, Arabidopsis thaliana, UniProt P46600 1-282, looked up)
chain: T1 sequence
notes: HAT1 of Arabidopsis thaliana; the HAT1 coding region amplified from Col-0 cDNA; The methods of the EMSA speak of recombinant proteins purified from E. coli; also called MBP-tagged HAT1; MBP-fusion HAT1 protein; source: recombinant (pETMALc-H vector), purified with amylose resin (NEB)
B3: ABA3 A1 mutant probe (dsDNA)
DNA 1: ATATTTAATTGCTGGTCGTTGGTTTAAACAAAATT
DNA 2: AATTTTGTTTAAACCAACGACCAGCAATTAAATAT
B4: ABA3 A1 WT probe (dsDNA)
DNA 1: ATATTTAATTTAATAATTATTGGTTTAAACAAAATT
DNA 2: AATTTTGTTTAAACCAATAATTATTAAATTAAATAT
B5: NCED3 N1 mutant probe (dsDNA)
DNA 1: AAACATTCGCTGGTCGTTGTTACTCTATTCTTCTAAA
DNA 2: TTTAGAAGAATAGAGTAACAACGACCAGCGAATGTTT

Legend:
MBP-HAT1 = target: T1, MBP-HAT1; test: EMSA; EMSA: 25 mM HEPES-KOH pH 8.0, 50 mM KCl, 1 mM DTT, 10% glycerol, 20 uL, ~1 ng probe, 30 min on ice; 5% native PAGE, 1x TGE pH 8.7; settings: protein: recombinant; tags: MBP (pETMALc-H); chain copies: 2
GST-SnRK2.3 = target: T2, GST-SnRK2.3; test: pull-down; GST pull-down: GST or GST-SnRK2s as bait, MBP-tagged HAT1 or its domains detected by western blotting with anti-MBP antibody; settings: both partners purified
GST-SnRK2.6 = target: T3, GST-SnRK2.6; test: as above; settings: both partners purified
GST-SnRK2.2 = target: T4, GST-SnRK2.2; test: as above; settings: both partners purified

| Binder | binding result (MBP-HAT1) | binding result (GST-SnRK2.3) | binding result (GST-SnRK2.6) | binding result (GST-SnRK2.2) |
| --- | --- | --- | --- | --- |
| B1 | binds | – | – | – |
| B2 | – | binds | binds | binds |
| B3 | no binding | – | – | – |
| B4 | binds | – | – | – |
| B5 | no binding | – | – | – |
